T1: Sal-1 DBP-II Mutant 1 (changes at residues 218 and 221-223), recombinant (Plasmodium vivax (strain Salvador I), UniProt P22290 211-525)
T1 chain: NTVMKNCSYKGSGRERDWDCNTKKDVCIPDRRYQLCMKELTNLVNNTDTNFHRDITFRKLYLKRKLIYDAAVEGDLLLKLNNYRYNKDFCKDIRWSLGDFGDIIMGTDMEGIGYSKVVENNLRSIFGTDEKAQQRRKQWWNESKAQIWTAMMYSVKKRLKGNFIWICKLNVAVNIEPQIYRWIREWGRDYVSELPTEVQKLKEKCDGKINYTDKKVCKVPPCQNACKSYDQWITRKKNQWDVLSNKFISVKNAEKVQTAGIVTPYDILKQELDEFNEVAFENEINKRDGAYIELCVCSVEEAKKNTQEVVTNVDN

T2: Sal-1 DBP-II Mutant 12 (changes at residues 479 and 480), recombinant (Plasmodium vivax (strain Salvador I), UniProt P22290 211-525)
T2 chain: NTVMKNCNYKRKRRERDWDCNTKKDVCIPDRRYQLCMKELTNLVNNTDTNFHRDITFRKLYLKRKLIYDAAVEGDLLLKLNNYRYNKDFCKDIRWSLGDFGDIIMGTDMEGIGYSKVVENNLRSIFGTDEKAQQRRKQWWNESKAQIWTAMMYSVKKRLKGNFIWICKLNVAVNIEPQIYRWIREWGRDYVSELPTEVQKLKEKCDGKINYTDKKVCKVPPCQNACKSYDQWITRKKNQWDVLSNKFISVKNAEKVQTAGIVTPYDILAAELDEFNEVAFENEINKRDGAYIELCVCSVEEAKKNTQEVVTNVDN

T3: Duffy Antigen Receptor for Chemokines (DARC) on human Duffy positive erythrocytes (human, UniProt Q16570 1-336)
T3 construct: whole, on cells; also called DARC positive erythrocytes
T3 sequence: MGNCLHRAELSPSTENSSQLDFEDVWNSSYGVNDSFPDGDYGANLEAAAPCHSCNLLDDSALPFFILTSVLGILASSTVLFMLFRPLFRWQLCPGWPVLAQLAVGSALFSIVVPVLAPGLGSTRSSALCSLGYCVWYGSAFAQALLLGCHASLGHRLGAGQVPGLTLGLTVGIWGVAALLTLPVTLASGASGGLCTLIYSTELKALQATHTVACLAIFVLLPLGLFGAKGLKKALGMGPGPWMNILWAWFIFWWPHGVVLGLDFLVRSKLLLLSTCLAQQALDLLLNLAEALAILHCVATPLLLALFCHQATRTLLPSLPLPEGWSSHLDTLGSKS

B1: anti-DBPII monoclonal antibody mAb 2C6 (antibody, V domains shown)
VH: QVQLQQSDAELVKPGASVKISCKVSGYTFTDHSIHWMKQRPEQGLEWIGYIYPRDGSTEYNEKFKGKATLTTDKSSSTAYMQLNSLTSADSAVYFCARWFGYYFDYWGQGTTLTVSS
VL: NIMMTQSPSSLAVSAGEKVTMSCKSSQSVLYSSNQKNYLAWYQQKPGQSPKLLIYWASSRESGVPDRFTGSGSGTDFTLTISSVQPEDLAVYYCHQYLSSWTFGGGTKLEITR
B2: recombinant DEKnull-2 (designed binder)
chain: TISSAIINHAFLQNTVMKNCNYKRKRRERDWDCNTKKDVCIPDRRYQLCMKELTNLVNNTDTNFHADITFRKLYLKAKLIYDAAVEGDLLTKLNNYRYNKDFCKDIRWSLGDFGDIIMGTDMEGIGTSAVVENNLRSIFGTAATAQARRSQWTSESKAQIWTAMMYSVKKRLKGTFIWICKANVAVNIEPQIYRSIREWGRDYVAELPTEVTKLKEKCDGKINYADKKVCKVPPCQNACKSYDQWITRKANQWDVLSNKFTSAKNAEKAQTASIVTPYDILKQELDEFNEVAFENEINKRDGAYIELCVCSVEEAKKNTQEVVTNVDNHHHHHH
notes: Polymorphic residues of Sal1 mutated; also called rDEKnull-2
B3: DBPII Sal1 expressed on the surface of COS7 cells (ligand)
chain: TISSAIINHAFLQNTVMKNCNYKRKRRERDWDCNTKKDVCIPDRRYQLCMKELTNLVNNTDTNFHRDITFRKLYLKRKLIYDAAVEGDLLLKLNNYRYNKDFCKDIRWSLGDFGDIIMGTDMEGIGYSKVVENNLRSIFGTDEKAQQRRKQWWNESKAQIWTAMMYSVKKRLKGNFIWICKLNVAVNIEPQIYRWIREWGRDYVSELPTEVQKLKEKCDGKINYTDKKVCKVPPCQNACKSYDQWITRKKNQWDVLSNKFISVKNAEKVQTAGIVTPYDILKQELDEFNEVAFENEINKRDGAYIELCVCSVEEAKKNTQEVVTNVDN
notes: also called COS7 cell surface-expressed Sal1; wild type DBPII Sal1
B4: recombinant DEKnull (designed binder)
chain: TISSAIINHAFLQNTVMKNCNYKRKRRERDWDCNTKKDVCIPDRRYQLCMKELTNLVNNTDTNFHRDITFRKLYLKRKLIYDAAVEGDLLLKLNNYRYNKDFCKDIRWSLGDFGDIIMGTDMEGIGYSKVVENNLRSIFGTAATAQATRSQWTSESKAQIWTAMMYSVKKRLKGNFIWICKLNVAVNIEPQIYRWIREWGRDYVSELPTEVQKLKEKCDGKINYTDKKVCKVPPCQNACKSYDQWITRKKNQWDVLSNKFISVKNAEKVQTAGIVTPYDILKQELDEFNEVAFENEINKRDGAYIELCVCSVEEAKKNTQEVVTNVDN
notes: also called rDEKnull; original DEKnull
B5: recombinant DBPII Sal1 (ligand domain, region II, of Plasmodium vivax Duffy binding protein, Sal1 allele) (ligand)
chain: TISSAIINHAFLQNTVMKNCNYKRKRRERDWDCNTKKDVCIPDRRYQLCMKELTNLVNNTDTNFHRDITFRKLYLKRKLIYDAAVEGDLLLKLNNYRYNKDFCKDIRWSLGDFGDIIMGTDMEGIGYSKVVENNLRSIFGTDEKAQQRRKQWWNESKAQIWTAMMYSVKKRLKGNFIWICKLNVAVNIEPQIYRWIREWGRDYVSELPTEVQKLKEKCDGKINYTDKKVCKVPPCQNACKSYDQWITRKKNQWDVLSNKFISVKNAEKVQTAGIVTPYDILKQELDEFNEVAFENEINKRDGAYIELCVCSVEEAKKNTQEVVTNVDN
notes: also called rDBPII Sal1; rDBPII
B6: DEKnull-2 expressed on the surface of COS7 cells (designed binder)
chain: TISSAIINHAFLQNTVMKNCNYKRKRRERDWDCNTKKDVCIPDRRYQLCMKELTNLVNNTDTNFHADITFRKLYLKAKLIYDAAVEGDLLTKLNNYRYNKDFCKDIRWSLGDFGDIIMGTDMEGIGTSAVVENNLRSIFGTAATAQARRSQWTSESKAQIWTAMMYSVKKRLKGTFIWICKANVAVNIEPQIYRSIREWGRDYVAELPTEVTKLKEKCDGKINYADKKVCKVPPCQNACKSYDQWITRKANQWDVLSNKFTSAKNAEKAQTASIVTPYDILKQELDEFNEVAFENEINKRDGAYIELCVCSVEEAKKNTQEVVTNVDN
notes: also called COS7 cell surface-expressed rDEKnull-2
B7: recombinant DEKnull-3 (designed binder)
chain: TISSAIINHAFLQNTVMKNCNYKRKRRERDWDCNTKKDVCIPDRRYQLCMKELTNLTATATSAAHRDITFRKLYAARTSAYDAAVEGDLLLKLTNYRASTDACKAATWSLGDFGDIIMGTDMEGIGYSKVVATNLRSIFGTDEKAQQRRKQWTATSKAQIWTAMMAASTAASKGNAIWSCKLNVAVNIEPTIAAWIATSARATSSELPTEVQKLKEKCDGKINYTDKKVCKVPPCQNACKSYDQWITRKKNQWDVLSNKFISVKNAEKVQTAGIVTPYDILKQELDEFNEVAFENEINKRDGAYIELCVCSVEEAKKNTQEVVTNVDNHHHHHH
notes: also called rDEKnull-3
B8: recombinant DEKnull-4 (designed binder)
chain: TISSAIINHAFLQNTVMKNCNYKRKRRERDWDCNTKKDVCIPDRRYQLCMKALTNLVNNTDTNFHRDITARKAYLAAKLTADAASEGDLLLKLAATATSAATCKDIRWSLGDFGDIIMGTDMEGIGYSKVVENNLRSIFGTDEKAQQRRKQWWNESKATIWTAMMASATASAATSAATAAKLNVAVNIEPQIYRWIREWGRDYVSELPTEVQKLKEKCDGKINYTDKKVCKVPPCQNACKSYDQWITRKKNQWDVLSNKFISVKNAEKVQTAGIVTPYDILKQELDEFNEVAFENEINKRDGAYIELCVCSVEEAKKNTQEVVTNVDNHHHHHH
notes: Dimerization residues of Sal1 mutated; also called rDEKnull-4
B9: DEKnull-3 expressed on the surface of COS7 cells (designed binder)
chain: TISSAIINHAFLQNTVMKNCNYKRKRRERDWDCNTKKDVCIPDRRYQLCMKELTNLTATATSAAHRDITFRKLYAARTSAYDAAVEGDLLLKLTNYRASTDACKAATWSLGDFGDIIMGTDMEGIGYSKVVATNLRSIFGTDEKAQQRRKQWTATSKAQIWTAMMAASTAASKGNAIWSCKLNVAVNIEPTIAAWIATSARATSSELPTEVQKLKEKCDGKINYTDKKVCKVPPCQNACKSYDQWITRKKNQWDVLSNKFISVKNAEKVQTAGIVTPYDILKQELDEFNEVAFENEINKRDGAYIELCVCSVEEAKKNTQEVVTNVDN
notes: also called COS7 cell surface-expressed DEKnull-3
B10: DEKnull-4 expressed on the surface of COS7 cells (designed binder)
chain: TISSAIINHAFLQNTVMKNCNYKRKRRERDWDCNTKKDVCIPDRRYQLCMKALTNLVNNTDTNFHRDITARKAYLAAKLTADAASEGDLLLKLAATATSAATCKDIRWSLGDFGDIIMGTDMEGIGYSKVVENNLRSIFGTDEKAQQRRKQWWNESKATIWTAMMASATASAATSAATAAKLNVAVNIEPQIYRWIREWGRDYVSELPTEVQKLKEKCDGKINYTDKKVCKVPPCQNACKSYDQWITRKKNQWDVLSNKFISVKNAEKVQTAGIVTPYDILKQELDEFNEVAFENEINKRDGAYIELCVCSVEEAKKNTQEVVTNVDN
notes: also called COS7 cell surface-expressed DEKnull-4

How the values were obtained:
[1] = biological target: T1, Sal-1 DBP-II Mutant 1 (changes at …); experiment: ELISA on adsorbed recombinant protein
[2] = biological target: T2, Sal-1 DBP-II Mutant 12 (changes at …); experiment: ELISA on adsorbed recombinant protein
[3] = biological target: T4, Sal-1 DBP-II expressed on the surface of HEK293T cells (Plasmodium vivax, UniProt P22290 198-525); experiment: immunofluorescence on HEK293T cells, 10 ug/mL mAb
T4 construct: Expressed from the pRE4 vector on HEK293T cells; also called P. vivax Sal-1 DBP-II

[4] = biological target: T3, Duffy Antigen Receptor for Chemokines …; experiment: in vitro erythrocyte binding assay, blot of eluted antigen
[5] = biological target: T3, Duffy Antigen Receptor for Chemokines …; experiment: COS7 cell binding assay (rosettes)
[6] = biological target: T3, Duffy Antigen Receptor for Chemokines …; experiment: in vitro erythrocyte binding assay, eluted antigen detected by blot with mAb-3D10

Binder | binding result [4] | binding result [5] | further results
B1 |  |  | binding result [1]: binds; binding result [2]: no binding; binding result [3]: binds
B2 | binds |  | 
B3 |  | binds | 
B4 | binds |  | 
B5 | binds |  | 
B6 |  | binds | 
B7 |  |  | binding result [6]: no binding
B8 |  |  | binding result [6]: no binding
B9 |  | no binding | 
B10 |  | no binding | 

Source: patent publication US10927153 (UNIVERSITY OF SOUTH FLORIDA, dated 2021)
